This series concerns viral hemagglutinin on virions (vHA) (Influenza A virus A/chicken/Kurgan/3654at/2005 (H5N1)). As to the kind of experiment: BLI. Particulars: BLI at 30 C in sodium-potassium phosphate buffer pH 7.4 ([…].
On to GGGAGGGAGGGAGGG [G7nt-A_A_A], for which the Kd (as a rule, the free concentration of one partner at which half of the binding sites on the other are occupied at equilibrium, for simple one-to-one binding) came out at 0.2 nM.
In turn, GGGAGGGAGGGCGGG [G7nt-A_A_C] gave a Kd of 0.3 nM.
As for GGGAGGGTGGGTGGG [G7nt-A_T_T], the Kd is 0.2 nM.
The sequence GGGTGGGAGGGCGGG [G7nt-T_A_C] registered a Kd of 0.3 nM.
GGGTGGGAGGGTGGG [G7nt-T_A_T] came in with a Kd of 0.07 nM.
In turn, GGGTGGGTGGGAGGG [G7nt-T_T_A] returned a Kd of 0.7 nM.
GGGTGGGTGGGTGGG [G7nt-T_T_T]: the Kd was 0.6 nM.
In turn, GGGTTATTTTGGGAGGGCGGG [G7nt] showed a Kd of 0.13 nM.
In the case of GGGTTATTTTGGGAGGGCGGGGGTT [G7n5t], the Kd was 0.04 nM.
Take TTGGGGTTAGGGAGGGCGGGGGTT [G7-TTA_A_C]: the Kd was 0.04 nM.
Then “TTGGGGTTATTAAGGGAGGGCGGGGGTT [G7-TTATTAA_A_C]”, with 0.09 nM; and TTGGGGTTATTTTGGGAGGGCGGG [G7n3t], with 0.16 nM; and TTGGGGTTATTTTGGGAGGGCGGGGGTT [RHA0385], with 0.05 nM.

For the origin of these results see article PMC7957560.
